These results are taken from the supplement of paper PMC7877785.

± gives the uncertainty stated by the source.

The data set can be described thus: self-splicing fitness, log relative to wild type (ln ratio); higher = more splicing; Tetrahymena group I intron in knt gene, E. coli kanamycin selection, DiMSum; sequences stand for … in CUCUCU…GGAGGGAAAAGUUAUCAGGCAUGCACCUGGUAGCUAGUCUUUAAACCAAUAGAUUGCAUCGGUUUAAAAGGCAAGACCGUCAAAUUGCGGGAAAGGGGUCAACAGCCGUUCAGUACCAAGUCUCAGGGGAAACUUUGAGAUGGCCUUGCAAAGGGUAUGGUAAUAAGCUGACGGACAUGGUCCUAACCACGCAGCCAAGUCCUAAGUCAACAGAUCUUCUGUUGAUAUGGAUGCAGUUCACAGACUAAAUGUCGGUCGGGGAAGAUGUAUUCUUCUCAUAAGAUAUAGUCGGACCUCUCCUUAAUGGGAGCUAGCGGAUGAAGUGAUGCAACACUGGAGCCGCUGGGAACUAAUUUGUAUGCGAAAGUAUAUUGAUUAGUUUUGGAGUACUCGUGGUCG
The method in brief:
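Six replicate transformations of E. coli BL21(DE3) with a pET-22b(+) library were grown overnight at 37°C or 30°C. The library randomised all eight P1ex-region intron nucleotides, the intron lying in the knt kanamycin-resistance gene, and plates were LB agar with or without 25 μg/mL kanamycin plus 100 μg/mL carbenicillin, 50 μM IPTG and 0.2% rhamnose. Pooled colonies were amplicon-sequenced on an Illumina HiSeq 2500, and fitness is the DiMSum error-weighted combination of wild-type-normalised replicate fold changes, kanamycin versus none.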

For GUCGAGCAAUAUUACGUUUA, the “self-splicing fitness (ln)” value was -2.37 ± 0.15 (30 °C) and -1.87 ± 0.15 (37 °C).

Regarding GUCUAGCAAUAUUACGAAAU, the “self-splicing fitness (ln)” value worked out at 0.0935 ± 0.11 (30 °C) and 0.4 ± 0.1 (37 °C).

As for GUCUAGCAAUAUUACGAACG, the “self-splicing fitness (ln)” value (30 °C) is -1.83 ± 0.2 and the “self-splicing fitness (ln)” value (37 °C) was -1.13 ± 0.23.

As to GUCUAGCAAUAUUACGACAC, the “self-splicing fitness (ln)” value runs as follows: (30 °C) -0.746 ± 0.13; (37 °C) -0.011 ± 0.11.

On to GUCUAGCAAUAUUACGCGUC, for which the “self-splicing fitness (ln)” value is, setting by setting: (30 °C) -2.18 ± 0.099; (37 °C) -0.0852 ± 0.1.

On to GUCUAGCAAUAUUACGCUCU, for which the “self-splicing fitness (ln)” value reads like this: (30 °C) -0.178 ± 0.13; (37 °C) 1.05 ± 0.15.

In the case of GUCUAGCAAUAUUACGCUUG, the “self-splicing fitness (ln)” value reads like this: (30 °C) -1.22 ± 0.11; (37 °C) -0.705 ± 0.11.

For the sequence GUCUAGCAAUAUUACGGAAG, the “self-splicing fitness (ln)” value is -0.159 ± 0.09 (30 °C) and 0.218 ± 0.12 (37 °C).

As to GUCUAGCAAUAUUACGGAUU, the “self-splicing fitness (ln)” value (30 °C) is -1.75 ± 0.089 and the “self-splicing fitness (ln)” value (37 °C) was -0.0906 ± 0.085.

For the sequence GUCUAGCAAUAUUACGGCAU, the “self-splicing fitness (ln)” value reads like this: (30 °C) -0.166 ± 0.092; (37 °C) 0.88 ± 0.11.

Turning to GUCUAGCAAUAUUACGGCUU, the “self-splicing fitness (ln)” value by setting is: (30 °C) -0.982 ± 0.12; (37 °C) 0.12 ± 0.14.

With GUCUAGCAAUAUUACGGGGA, the “self-splicing fitness (ln)” value was -2.08 ± 0.25 (30 °C) and -3.16 ± 0.32 (37 °C).

For GUCUAGCAAUAUUACGGGUG, the “self-splicing fitness (ln)” value (30 °C) was -1.28 ± 0.05 and the “self-splicing fitness (ln)” value (37 °C) was -0.553 ± 0.058.

Take GUCUAGCAAUAUUACGGUAC: the “self-splicing fitness (ln)” value was -0.985 ± 0.14 (30 °C) and -0.625 ± 0.17 (37 °C).

Consider GUCUAGCAAUAUUACGGUGC, for which the “self-splicing fitness (ln)” value reads like this: (30 °C) 0.0594 ± 0.14; (37 °C) -0.142 ± 0.15.

Take GUCUAGCAAUAUUACGGUUU: the “self-splicing fitness (ln)” value was -1.42 ± 0.077 (30 °C) and -0.192 ± 0.095 (37 °C).

As to GUCUAGCAAUAUUACGUAAC, the “self-splicing fitness (ln)” value was -0.708 ± 0.13 (30 °C) and -0.195 ± 0.13 (37 °C).

As to GUCUAGCAAUAUUACGUACA, the “self-splicing fitness (ln)” value runs as follows: (30 °C) -0.922 ± 0.1; (37 °C) -0.376 ± 0.1.

Turning to GUCUAGCAAUAUUACGUAUU, the “self-splicing fitness (ln)” value was -0.645 ± 0.086 (30 °C) and -0.635 ± 0.095 (37 °C).

GUCUAGCAAUAUUACGUUGG: the “self-splicing fitness (ln)” value by setting is: (30 °C) -3.01 ± 0.15; (37 °C) -1.86 ± 0.14.

As to GUGAAGCAAUAUUACGAACC, the “self-splicing fitness (ln)” value (30 °C) was -3.05 ± 0.29.

For GUGAAGCAAUAUUACGACGG, the “self-splicing fitness (ln)” value (30 °C) is -0.531 ± 0.12 and the “self-splicing fitness (ln)” value (37 °C) was -0.418 ± 0.23.

Take GUGAAGCAAUAUUACGACUG: the “self-splicing fitness (ln)” value is -1.37 ± 0.09 (30 °C) and -0.924 ± 0.14 (37 °C).

Regarding GUGAAGCAAUAUUACGAGAC, the “self-splicing fitness (ln)” value runs as follows: (30 °C) -2.62 ± 0.19; (37 °C) -0.955 ± 0.12.

For GUGAAGCAAUAUUACGAGCG, the “self-splicing fitness (ln)” value runs as follows: (30 °C) -0.702 ± 0.087; (37 °C) 0.396 ± 0.12.

GUGAAGCAAUAUUACGAUAC: the “self-splicing fitness (ln)” value (30 °C) was -0.501 ± 0.11 and the “self-splicing fitness (ln)” value (37 °C) is -0.461 ± 0.14.

As for GUGAAGCAAUAUUACGAUAG, the “self-splicing fitness (ln)” value by setting is: (30 °C) -2.11 ± 0.19; (37 °C) -0.681 ± 0.18.

As for GUGAAGCAAUAUUACGCAGG, the “self-splicing fitness (ln)” value is -1.88 ± 0.1 (30 °C) and -0.654 ± 0.1 (37 °C).

For GUGAAGCAAUAUUACGCCCC, the “self-splicing fitness (ln)” value (30 °C) was -0.362 ± 0.33.

With GUGAAGCAAUAUUACGCCCG, the “self-splicing fitness (ln)” value was -0.347 ± 0.39 (30 °C) and -0.026 ± 0.42 (37 °C).

For the sequence GUGAAGCAAUAUUACGCGCC, the “self-splicing fitness (ln)” value was -4.14 ± 0.33 (30 °C) and -2.69 ± 0.41 (37 °C).

As to GUGAAGCAAUAUUACGCUAG, the “self-splicing fitness (ln)” value (30 °C) is -0.945 ± 0.14 and the “self-splicing fitness (ln)” value (37 °C) was determined as 0.0205 ± 0.23.

Take GUGAAGCAAUAUUACGCUGU: the “self-splicing fitness (ln)” value is -2.74 ± 0.13 (30 °C) and -1.29 ± 0.12 (37 °C).

Turning to GUGAAGCAAUAUUACGGAAU, the “self-splicing fitness (ln)” value is -1.06 ± 0.18 (30 °C) and -0.308 ± 0.18 (37 °C).

For the sequence GUGAAGCAAUAUUACGGAGA, the “self-splicing fitness (ln)” value is, setting by setting: (30 °C) -2.03 ± 0.32; (37 °C) -1.19 ± 0.47.

As to GUGAAGCAAUAUUACGGCGA, the “self-splicing fitness (ln)” value runs as follows: (30 °C) 0.0822 ± 0.15; (37 °C) 0.297 ± 0.18.

On to GUGAAGCAAUAUUACGGUAU, for which the “self-splicing fitness (ln)” value is, setting by setting: (30 °C) -1.47 ± 0.076; (37 °C) -0.418 ± 0.1.

On to GUGAAGCAAUAUUACGGUGA, for which the “self-splicing fitness (ln)” value was -0.922 ± 0.11 (30 °C) and 0.58 ± 0.14 (37 °C).

Consider GUGAAGCAAUAUUACGUACG, for which the “self-splicing fitness (ln)” value is, setting by setting: (30 °C) -0.64 ± 0.16; (37 °C) 0.312 ± 0.15.

Take GUGAAGCAAUAUUACGUCCG: the “self-splicing fitness (ln)” value runs as follows: (30 °C) -0.484 ± 0.15; (37 °C) -0.103 ± 0.17.

For GUGAAGCAAUAUUACGUCCU, the “self-splicing fitness (ln)” value is, setting by setting: (30 °C) -0.476 ± 0.12; (37 °C) 0.382 ± 0.18.

As for GUGAAGCAAUAUUACGUCUG, the “self-splicing fitness (ln)” value was -1.29 ± 0.12 (30 °C) and -0.0242 ± 0.2 (37 °C).

As to GUGAAGCAAUAUUACGUGGC, the “self-splicing fitness (ln)” value is -2.6 ± 0.14 (30 °C) and -2.41 ± 0.23 (37 °C).

For the sequence GUGAAGCAAUAUUACGUGUC, the “self-splicing fitness (ln)” value (30 °C) was -2.89 ± 0.11 and the “self-splicing fitness (ln)” value (37 °C) is -1.83 ± 0.12.

Take GUGAAGCAAUAUUACGUUGC: the “self-splicing fitness (ln)” value (37 °C) is -1.92 ± 0.46.

With GUGAAGCAAUAUUACGUUUA, the “self-splicing fitness (ln)” value by setting is: (30 °C) -1.01 ± 0.064; (37 °C) -0.109 ± 0.11.

Turning to GUGCAGCAAUAUUACGAUAA, the “self-splicing fitness (ln)” value is, setting by setting: (30 °C) -2.55 ± 0.16; (37 °C) -1.04 ± 0.13.

Consider GUGCAGCAAUAUUACGAUAU, for which the “self-splicing fitness (ln)” value runs as follows: (30 °C) -0.385 ± 0.091; (37 °C) -0.244 ± 0.12.

For GUGCAGCAAUAUUACGAUCG, the “self-splicing fitness (ln)” value (30 °C) was -1.95 ± 0.12 and the “self-splicing fitness (ln)” value (37 °C) is -1.45 ± 0.1.

As for GUGCAGCAAUAUUACGCCAG, the “self-splicing fitness (ln)” value (30 °C) is -2.82 ± 0.47.

On to GUGCAGCAAUAUUACGCGUC, for which the “self-splicing fitness (ln)” value is, setting by setting: (30 °C) -3.39 ± 0.3; (37 °C) -1.4 ± 0.21.

GUGCAGCAAUAUUACGCUAA: the “self-splicing fitness (ln)” value reads like this: (30 °C) -0.546 ± 0.17; (37 °C) 0.418 ± 0.15.

As for GUGCAGCAAUAUUACGCUAU, the “self-splicing fitness (ln)” value was -2.36 ± 0.15 (30 °C) and -1.14 ± 0.12 (37 °C).

On to GUGCAGCAAUAUUACGGCGU, for which the “self-splicing fitness (ln)” value reads like this: (30 °C) -1.58 ± 0.096; (37 °C) -1.93 ± 0.17.

On to GUGCAGCAAUAUUACGGGGU, for which the “self-splicing fitness (ln)” value runs as follows: (30 °C) -2.79 ± 0.22; (37 °C) -2.19 ± 0.24.

Consider GUGCAGCAAUAUUACGGUUA, for which the “self-splicing fitness (ln)” value is -0.723 ± 0.092 (30 °C) and -0.164 ± 0.089 (37 °C).

On to GUGCAGCAAUAUUACGGUUU, for which the “self-splicing fitness (ln)” value (30 °C) is -0.309 ± 0.062 and the “self-splicing fitness (ln)” value (37 °C) is -0.000827 ± 0.076.

As for GUGCAGCAAUAUUACGUACC, the “self-splicing fitness (ln)” value (37 °C) was -2.41 ± 0.32.

Turning to GUGCAGCAAUAUUACGUACU, the “self-splicing fitness (ln)” value reads like this: (30 °C) -2.7 ± 0.39; (37 °C) -0.869 ± 0.38.

Consider GUGCAGCAAUAUUACGUCGU, for which the “self-splicing fitness (ln)” value is -1.01 ± 0.12 (30 °C) and -0.193 ± 0.14 (37 °C).

For GUGCAGCAAUAUUACGUGAA, the “self-splicing fitness (ln)” value reads like this: (30 °C) -0.187 ± 0.1; (37 °C) -1.19 ± 0.14.
